In patent US20260116960A1 (SHANGHAI HONGCHENG BIOPHARMACEUTICAL, published 2026):
One block for each binder: values may come before it.

Tests used:
[1] = molecular target: T1, human PD-1 on the cell surface (human, UniProt Q15116 25-288); experiment: flow cytometry competition, 293T-hPD-1 cells, biotin-human PD-L1
T1 construct: whole, on cells; also called cell surface PD-1
Procedure: 50 μL of antibody solution serially diluted 3-fold in FACS buffer was added in triplicate, with a starting concentration of 200 nM. After mixing, incubated at 4° C. for 60 minutes. After washing three times with FACS buffer, 100 μL/well of 1:800 diluted PE Streptavidin was added and incubated at 4° C. for 50 min. After washing three times with FACS buffer, 150 μL/well of PBS was added to resuspend the cells, and the fluorescence signal was detected on a flow cytometer (BECKMAN COULTER cytoFLEX). The four-parameter model was used to fit the binding activity and the IC₅₀ value of the blocking activity of each antibody was calculated.

[2] = molecular target: T2, human VEGF165-his protein (Acro, Catalog No. VE5-H5248) (human, UniProt P15692-4 27-191); experiment: ELISA, plate coated with human VEGF165-his
T2 construct: Bought protein; also called hVEGF165-His; VEGFA; not shown: his tag
T2 sequence (P15692 other isoform, or with tags, fused parts or gaps limits assumed): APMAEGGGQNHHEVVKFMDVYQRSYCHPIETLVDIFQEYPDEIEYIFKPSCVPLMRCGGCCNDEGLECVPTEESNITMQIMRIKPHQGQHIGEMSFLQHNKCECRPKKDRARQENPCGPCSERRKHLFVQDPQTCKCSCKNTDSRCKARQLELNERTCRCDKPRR
Procedure: (§1) ELISA was used to determine the activity of the trispecific antibodies binding to the PD-1 protein: 1 μg/mL human PD-1 protein (Acro, Catalog No.: PD1-H5221) was used to coat a high-adsorption 96-well ELISA plate and incubated at 4° C. overnight. On the next day, the plate was washed three times with PBST solution and blocked with 1% BSA-PBS solution at 37° C. for 1 hour. At the same time, 3-fold gradient dilutions of the antibody were prepared with 1% BSA-PBS solution, with a starting concentration of 10 nM. The antibodies of each gradient concentration were added to the blocked 96-well ELISA plate at 100 µL/well in triplicate and incubated at 37° C. for 1 hour. The plate was then washed three times with 0.05% PBST solution, and 100 μL/well of HRP-labeled secondary antibody (Sigma, Catalog No.: A0170) diluted at 1:5000 was added to the ELISA plate and incubated at 37° C. for 1 hour. The plate was washed three times with 0.05% PBST solution and developed with TMB. The absorbance of the 96-well ELISA plate at 450 nm was detected by an ELISA reader. The OD₄₅₀ value was fitted using a four-parameter model to calculate the EC₅₀ value of each antibody binding to PD-1.
The binding activity of the trispecific antibodies to VEGFA protein was detected by ELISA method as described in Section 2.1. The used human VEGF165-his protein was purchased from Acro, Catalog No.: VE5-H5248.

[3] = molecular target: human PD-1 protein (Acro, PD1-H5257) (human, UniProt Q15116 25-167); experiment: competitive ELISA, PD-1 coated, biotin-PD-L1 as labelled ligand
Sequence of human PD-1 protein (Acro, PD1-H5257) (Q15116 25-167 limits assumed): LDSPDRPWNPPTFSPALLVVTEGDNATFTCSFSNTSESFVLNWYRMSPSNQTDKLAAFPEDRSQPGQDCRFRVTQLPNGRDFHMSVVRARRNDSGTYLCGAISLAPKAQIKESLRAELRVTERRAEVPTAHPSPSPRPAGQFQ
Procedure: The next day, the plate was washed three times with PBS solution and blocked with 1% BSA-PBS solution at 37° C. for 1 hour. […] 100 μL of the antibody-protein mixture was added to each well of the blocked 96-well ELISA plate and incubated at 37° C. for 1 hour. After washing four times with PBST, 100 μL of Strep-HRP (BD, Catalog No. 554066) diluted 1:5000 was added to each well of the ELISA plate and incubated at 37° C. for 1 hour. After washing 4 times with PBST, TMB was used for color development. The absorbance at 450 nm and 630 nm was detected by a microplate reader, and OD450-OD630 was calculated. The fluorescence intensity was fitted using a four-parameter model, and the IC₅₀ value of the blocking activity of each antibody was calculated.

[4] = molecular target: T3, human PD-1 protein (Acro, Catalog No. PD1-H5221) (human, UniProt Q15116 25-167); experiment: ELISA, plate coated with human PD-1 protein
T3 construct: Bought protein; also called human PD1-his; not shown: his tag
T3 sequence (Q15116 25-167 limits assumed): as above
Procedure: as §1

[5] = molecular target: T4, human CTLA-4 protein (Acro, Catalog No. CT4-H52H9) (human, UniProt P16410 36-161); experiment: ELISA, plate coated with human CTLA-4 protein
T4 construct: Bought protein
T4 sequence (P16410 36-161 limits assumed): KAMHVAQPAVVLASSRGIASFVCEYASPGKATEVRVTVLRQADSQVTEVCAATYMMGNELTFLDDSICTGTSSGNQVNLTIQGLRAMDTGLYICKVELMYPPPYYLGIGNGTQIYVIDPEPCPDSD

[6] = molecular target: T5, human CTLA-4 on the cell surface (human, UniProt P16410 36-223); experiment: flow cytometry competition, 293T-hPD-1-hCTLA-4 cells (PD-1 co-expressed), biotin-human CD80
T5 construct: whole, on cells; also called CHO-hCTLA-4 cells; CHOK1-hCTLA4 cells
T5 sequence (P16410 36-223): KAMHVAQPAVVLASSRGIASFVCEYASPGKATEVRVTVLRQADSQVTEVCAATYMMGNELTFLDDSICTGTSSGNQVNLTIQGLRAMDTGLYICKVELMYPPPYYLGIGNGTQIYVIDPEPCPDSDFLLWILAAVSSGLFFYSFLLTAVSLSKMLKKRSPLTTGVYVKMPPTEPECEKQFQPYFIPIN
Procedure: PD-1 and CTLA-4 are co-expressed on functionally exhausted T cells in the tumor microenvironment, and the expression level of PD-1 is higher than that of CTLA-4. […] 200 μL of the cells were added to a 96-well U-bottom plate, approximately 1.4×10⁵ cells/well. After centrifugation at 300 g for 5 minutes, the supernatant was discarded. […] After washing three times with FACS buffer, 100 μL/well of 1:800 diluted PE Streptavidin was added and incubated at 4° C. for 50 min. After washing three times with FACS buffer, 150 μL/well of PBS was added to resuspend the cells, and the fluorescence signal was detected on a flow cytometer (BECKMAN COULTER cytoFLEX). The binding activity was fitted using a four-parameter model, and the IC₅₀ value of the blocking activity of each antibody was calculated.

T1 sequence (Q15116 25-288): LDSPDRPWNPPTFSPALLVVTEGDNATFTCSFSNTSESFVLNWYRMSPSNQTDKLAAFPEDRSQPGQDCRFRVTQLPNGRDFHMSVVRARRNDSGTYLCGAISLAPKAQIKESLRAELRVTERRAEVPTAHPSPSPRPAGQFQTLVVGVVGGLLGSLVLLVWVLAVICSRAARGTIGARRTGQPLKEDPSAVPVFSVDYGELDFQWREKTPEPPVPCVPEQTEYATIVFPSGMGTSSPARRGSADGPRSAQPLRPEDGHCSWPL

B3: HC010-F13 (trispecific antibody, human IgG4 S228P, kappa)
heavy 1: EVQLVESGGGLVQPGGSLRLSCAASGFTFSSYGMSWVRQAPGKGLEWVSTISGGGRDTYYPDSVKGRFTISRDNSKNTLYLQMNSLRAEDTAVYYCARQNGITWFADWGQGTLVTVSSASTKGPSVFPLAPCSRSTSESTAALGCLVKDYFPEPVTVSWNSGALTSGVHTFPAVLQSSGLYSLSSVVTVPSSSLGTKTYTCNVDHKPSNTKVDKRVESKYGPPCPPCPAPEFLGGPSVFLFPPKPKDTLMISRTPEVTCVVVDVSQEDPEVQFNWYVDGVEVHNAKTKPREEQFNSTYRVVSVLTVLHQDWLNGKEYKCKVSNKGLPSSIEKTISKAKGQPREPQVYTLPPCQEEMTKNQVSLWCLVKGFYPSDIAVEWESNGQPENNYKTTPPVLDSDGSFFLYSRLTVDKSRWQEGNVFSCSVMHEALHNHYTQKSLSLSLGAGGGGSGGGGSGGGGSGGGGSEVQLVESGGGLVQPGGSLRLSCAASGYTFTNYGMNWVRQAPGKCLEWVGWINTYTGEPTYAADFKRRFTFSLDTSKSTAYLQMNSLRAEDTAVYYCAKYPHYYGSSHWYFDVWGQGTLVTVSSGGGGSGGGGSGGGGSGGGGSDIQMTQSPSSLSASVGDRVTITCSASQDISNYLNWYQQKPGKAPKVLIYFTSSLHSGVPSRFSGSGSGTDFTLTISSLQPEDFATYYCQQYSTVPWTFGCGTKVEIK
heavy 2: EVQLLESGGGLVQPGGSLRLSCAASGSIFSINHMAWYRQAPGKQRELVAGVNSRGTTNYVDSVKGRFTISRDNSKNTLYLQMNSLRAEDTAVYYCRALGGAVAAWGQGTLVTVSSGGGGSGGGGSGGGGSGGGGSESKYGPPCPPCPAPEFLGGPSVFLFPPKPKDTLMISRTPEVTCVVVDVSQEDPEVQFNWYVDGVEVHNAKTKPREEQFNSTYRVVSVLTVLHQDWLNGKEYKCKVSNKGLPSSIEKTISKAKGQPREPQVCTLPPSQEEMTKNQVSLSCAVKGFYPSDIAVEWESNGQPENNYKTTPPVLDSDGSFFLVSRLTVDKSRWQEGNVFSCSVMHEALHNRFTQKSLSLSLGAGGGGSGGGGSGGGGSGGGGSEVQLVESGGGLVQPGGSLRLSCAASGYTFTNYGMNWVRQAPGKCLEWVGWINTYTGEPTYAADFKRRFTFSLDTSKSTAYLQMNSLRAEDTAVYYCAKYPHYYGSSHWYFDVWGQGTLVTVSSGGGGSGGGGSGGGGSGGGGSDIQMTQSPSSLSASVGDRVTITCSASQDISNYLNWYQQKPGKAPKVLIYFTSSLHSGVPSRFSGSGSGTDFTLTISSLQPEDFATYYCQQYSTVPWTFGCGTKVEIK
light: DIQMTQSPSSLSASVGDRVTITCRASESVDNYGISFMNWYQQKPGKAPKLLIYAASNQGSGVPSRFSGSGSGTDFTLTISSLQPEDFATYYCQQSKEVPWTFGGGTKVEIKRTVAAPSVFIFPPSDEQLKSGTASVVCLLNNFYPREAKVQWKVDNALQSGNSQESVTEQDSKDSTYSLSSTLTLSKADYEKHKVYACEVTHQGLSSPVTKSFNRGEC
notes: Knob-into-hole heterodimer; light: CQ1-3/1-11 VL-kappa; One site each for PD-1 and CTLA-4; also called H010-F13
- IC50 [1]: 69.9 nM
- EC50 [2]: 0.098 nM
- IC50 [3]: 1.63 nM
- EC50 [4]: 0.307 nM
- EC50 [5]: 0.438 nM
- IC50 [6]: 0.066 nM

B4: HC010-F15 (trispecific antibody, human IgG4 S228P, kappa)
heavy 1: QVQLVESGGGVVQPGRSLRLSCAASGFTFSSYTMHWVRQAPGKGLEWVTFISYDGNNKYYADSVKGRFTISRDNSKNTLYLQMNSLRAEDTAIYYCARTGWLGPFDYWGQGTLVTVSSASTKGPSVFPLAPCSRSTSESTAALGCLVKDYFPEPVTVSWNSGALTSGVHTFPAVLQSSGLYSLSSVVTVPSSSLGTKTYTCNVDHKPSNTKVDKRVESKYGPPCPPCPAPEFLGGPSVFLFPPKPKDTLMISRTPEVTCVVVDVSQEDPEVQFNWYVDGVEVHNAKTKPREEQFNSTYRVVSVLTVLHQDWLNGKEYKCKVSNKGLPSSIEKTISKAKGQPREPQVYTLPPCQEEMTKNQVSLWCLVKGFYPSDIAVEWESNGQPENNYKTTPPVLDSDGSFFLYSRLTVDKSRWQEGNVFSCSVMHEALHNHYTQKSLSLSLGAGGGGSGGGGSGGGGSGGGGSEVQLVESGGGLVQPGGSLRLSCAASGYTFTNYGMNWVRQAPGKCLEWVGWINTYTGEPTYAADFKRRFTFSLDTSKSTAYLQMNSLRAEDTAVYYCAKYPHYYGSSHWYFDVWGQGTLVTVSSGGGGSGGGGSGGGGSGGGGSDIQMTQSPSSLSASVGDRVTITCSASQDISNYLNWYQQKPGKAPKVLIYFTSSLHSGVPSRFSGSGSGTDFTLTISSLQPEDFATYYCQQYSTVPWTFGCGTKVEIK
heavy 2: EVQLVESGGGLVQPGGSLRLSCAASGFTFSSYGMSWVRQAPGKCLEWVSTISGGGRDTYYPDSVKGRFTISRDNSKNTLYLQMNSLRAEDTAVYYCARQNGITWFADWGQGTLVTVSSGGGGSGGGGSGGGGSGGGGSDIQMTQSPSSLSASVGDRVTITCRASESVDNYGISFMNWYQQKPGKAPKLLIYAASNQGSGVPSRFSGSGSGTDFTLTISSLQPEDFATYYCQQSKEVPWTFGCGTKVEIKGGGGSGGGGSGGGGSGGGGSESKYGPPCPPCPAPEFLGGPSVFLFPPKPKDTLMISRTPEVTCVVVDVSQEDPEVQFNWYVDGVEVHNAKTKPREEQFNSTYRVVSVLTVLHQDWLNGKEYKCKVSNKGLPSSIEKTISKAKGQPREPQVCTLPPSQEEMTKNQVSLSCAVKGFYPSDIAVEWESNGQPENNYKTTPPVLDSDGSFFLVSRLTVDKSRWQEGNVFSCSVMHEALHNRFTQKSLSLSLGAGGGGSGGGGSGGGGSGGGGSEVQLVESGGGLVQPGGSLRLSCAASGYTFTNYGMNWVRQAPGKCLEWVGWINTYTGEPTYAADFKRRFTFSLDTSKSTAYLQMNSLRAEDTAVYYCAKYPHYYGSSHWYFDVWGQGTLVTVSSGGGGSGGGGSGGGGSGGGGSDIQMTQSPSSLSASVGDRVTITCSASQDISNYLNWYQQKPGKAPKVLIYFTSSLHSGVPSRFSGSGSGTDFTLTISSLQPEDFATYYCQQYSTVPWTFGCGTKVEIK
light: not shown
notes: Knob-into-hole heterodimer; light: ipilimumab VL-kappa; also called H010-F15
- IC50 [1]: 326 nM
- EC50 [2]: 0.087 nM
- IC50 [3]: 2.22 nM
- EC50 [4]: 0.712 nM

The next binders have a lower IC50 [1] than those just listed; values first:

- IC50 [1]: 5.58 nM
- EC50 [2]: 0.125 nM
- IC50 [3]: 0.83 nM
- EC50 [4]: 0.114 nM
- EC50 [5]: 0.044 nM
- IC50 [6]: 0.076 nM
B1: HC010-F11 (trispecific antibody, human IgG4 S228P, kappa)
heavy: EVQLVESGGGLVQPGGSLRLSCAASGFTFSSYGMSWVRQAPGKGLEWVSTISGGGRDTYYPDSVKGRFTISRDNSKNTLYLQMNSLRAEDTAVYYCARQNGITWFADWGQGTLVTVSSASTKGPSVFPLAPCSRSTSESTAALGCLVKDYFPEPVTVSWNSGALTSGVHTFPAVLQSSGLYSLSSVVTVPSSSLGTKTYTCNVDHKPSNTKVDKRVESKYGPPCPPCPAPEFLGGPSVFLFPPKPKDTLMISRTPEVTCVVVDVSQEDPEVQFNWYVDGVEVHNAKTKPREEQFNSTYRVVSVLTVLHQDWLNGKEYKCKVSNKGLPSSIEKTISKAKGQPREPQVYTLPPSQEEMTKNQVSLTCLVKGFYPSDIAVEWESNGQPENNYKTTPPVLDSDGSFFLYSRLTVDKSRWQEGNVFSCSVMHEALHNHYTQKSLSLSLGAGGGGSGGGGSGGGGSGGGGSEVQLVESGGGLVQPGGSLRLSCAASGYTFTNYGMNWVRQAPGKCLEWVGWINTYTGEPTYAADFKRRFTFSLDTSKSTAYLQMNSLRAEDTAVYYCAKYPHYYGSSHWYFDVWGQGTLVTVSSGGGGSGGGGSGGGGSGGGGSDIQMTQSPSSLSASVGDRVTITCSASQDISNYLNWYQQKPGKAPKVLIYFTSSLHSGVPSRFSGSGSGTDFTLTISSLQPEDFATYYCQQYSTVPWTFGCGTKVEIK
light: DIQMTQSPSSLSASVGDRVTITCRASESVDNYGISFMNWYQQKPGKAPKLLIYAASNQGSGVPSRFSGSGSGTDFTLTISSLQPEDFATYYCQQSKEVPWTFGGGTKVEIKRTVAAPSVFIFPPSDEQLKSGTASVVCLLNNFYPREAKVQWKVDNALQSGNSQESVTEQDSKDSTYSLSSTLTLSKADYEKHKVYACEVTHQGLSSPVTKSFNRGECGGGGSGGGGSGGGGSGGGGSEVQLLESGGGLVQPGGSLRLSCAASGSIFSINHMAWYRQAPGKQRELVAGVNSRGTTNYVDSVKGRFTISRDNSKNTLYLQMNSLRAEDTAVYYCRALGGAVAAWGQGTLVTVSS
notes: light: CQ1-3/1-11 VL-kappa - (G4S)4 - 202F1 VHH; also called H010-F11

- IC50 [1]: 3.7 nM
- EC50 [2]: 0.081 nM
- IC50 [3]: 0.433 nM
- EC50 [4]: 0.085 nM
- EC50 [5]: 0.059 nM
- IC50 [6]: 0.055 nM
B2: HC010-F7 (trispecific antibody, human IgG4 S228P, kappa)
heavy: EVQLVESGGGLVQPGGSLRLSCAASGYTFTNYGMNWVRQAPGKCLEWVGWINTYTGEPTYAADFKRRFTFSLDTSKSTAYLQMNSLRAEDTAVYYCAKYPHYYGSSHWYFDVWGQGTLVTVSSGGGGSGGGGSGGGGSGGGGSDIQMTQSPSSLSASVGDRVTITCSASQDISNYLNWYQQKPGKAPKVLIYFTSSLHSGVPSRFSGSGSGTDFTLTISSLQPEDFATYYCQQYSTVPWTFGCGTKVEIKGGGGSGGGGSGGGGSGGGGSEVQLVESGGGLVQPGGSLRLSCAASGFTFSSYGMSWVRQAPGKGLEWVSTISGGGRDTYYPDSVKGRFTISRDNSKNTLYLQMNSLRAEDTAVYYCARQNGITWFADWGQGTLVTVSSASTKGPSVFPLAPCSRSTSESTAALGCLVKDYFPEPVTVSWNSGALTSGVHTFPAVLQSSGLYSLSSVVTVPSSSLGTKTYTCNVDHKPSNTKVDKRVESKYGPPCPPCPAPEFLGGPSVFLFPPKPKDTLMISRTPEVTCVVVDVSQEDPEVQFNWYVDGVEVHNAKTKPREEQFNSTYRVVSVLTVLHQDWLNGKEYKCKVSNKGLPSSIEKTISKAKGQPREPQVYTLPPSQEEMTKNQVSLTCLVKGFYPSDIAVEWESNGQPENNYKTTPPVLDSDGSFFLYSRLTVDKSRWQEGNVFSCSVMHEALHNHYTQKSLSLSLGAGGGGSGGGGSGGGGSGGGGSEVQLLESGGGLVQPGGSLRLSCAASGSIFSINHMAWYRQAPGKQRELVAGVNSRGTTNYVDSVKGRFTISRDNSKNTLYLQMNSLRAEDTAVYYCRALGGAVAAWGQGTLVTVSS
light: B3 light
notes: light: CQ1-3/1-11 VL-kappa; also called H010-F7
